Measured values reported in patent publication US20260056186A1 (JIANGSU HENGRUI PHARMACEUTICALS, published 2026).
Where two headings read alike, the source gives them in different places.

Experiments:
[1] = target: T1, BAFF (PeproTech, Cat: 310-13) (UniProt Q9Y275 134-285); experiment: ELISA, plate coated with BAFF 1 ug/mL, HRP anti-human Fc, OD450
Procedure: (§1) BAFF (PeproTech, Cat: 310-13) was diluted to 1 μg/mL with PBS, and a 96-well plate was coated with the dilution overnight at 4° C. The plate was washed with PBST and blocked with Blocking Buffer (PBST containing 1% BSA) at 37° C. for 1 h. The plate was tapped. The test antibodies were diluted with Blocking Buffer. Incubation was performed at 37° C. for 1.5 h. The plate was washed with PBST. An HRP-mouse anti-human Fc antibody (GenScript, Cat: A01854-200) was diluted with Blocking Buffer. Incubation was performed at 37° C. for 40 min. The plate was washed with PBST. 100 μL of TMB substrate solution (Biopanda, Cat: TMB-S-003) was added, and color development was performed at 37° C. for 3 min. 100 μL of ELISA stop solution (Solarbio, Cat: C1058) was added. OD450 was measured.

[2] = target: T2, BAFF (Sino biological, 10056-HNCH) (UniProt Q9Y275 134-285, biotinylated in the blocking ELISA (site not stated)); experiment: competition ELISA: fusion protein pre-mixed with biotinylated BAFF, added to coated BAFF-R
T2 construct: also called BLyS
Procedure: The above TACI-Fc fusion proteins' function of blocking the binding of BAFF to BAFF-R was further assessed as follows: The receptor protein was diluted with a pH 7.4 PBS (BasalMedia, B320) buffer to 2 μg/mL, and the resulting dilution was added to a 96-well microplate (Corning, 3590) at 100 μL/well. The plate was incubated overnight at 4° C. After the liquid was discarded, 1% Casein blocking solution (Thermo, 37528) was added at 200 μL/well for blocking, and the plate was incubated at 37° C. for 2 h. After the blocking, the blocking solution was discarded, and the plate was washed 3 times with a PBST buffer (pH 7.4 PBS containing 0.1% tween-20) and set aside for later use. A biotinylated ligand protein at a fixed concentration was mixed with a serially diluted antibody or fusion protein, and the mixture was pre-incubated at 37° C. for 30 min and then added to the blocked microplate. The plate was incubated at 37° C. for 1.5 h. After the incubation, the plate was washed 3 times with PBST, and streptavidin-HRP (Invitrogen, 434323, diluted in a 1:4000 ratio) was added at 100 μL/well. The plate was incubated at 37° C. for 1 h. The supernatant was removed. […] The absorbance at 450 nm was measured using a microplate reader. Curves for the inhibition of the binding of the ligand to the receptor were fitted using software, and IC₅₀ values were calculated. […]

[3] = target: T1, BAFF (PeproTech, Cat: 310-13); experiment: ELISA, plate coated with BAFF 1 ug/mL, HRP anti-human Fc, OD450; remark: listed apart in the source
Procedure: as §1

[4] = target: T3, recombinant human APRIL (R&D cat: 5860-AP-010/CF) (human, UniProt O75888 105-250, limits assumed); experiment: cell-based or functional assay
T3 sequence (looked up): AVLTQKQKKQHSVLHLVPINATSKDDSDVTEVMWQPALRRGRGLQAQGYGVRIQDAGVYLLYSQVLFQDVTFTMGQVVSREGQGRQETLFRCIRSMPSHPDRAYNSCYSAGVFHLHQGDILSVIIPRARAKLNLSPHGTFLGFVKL

[5] = target: T1, BAFF (PeproTech, Cat: 310-13); experiment: ELISA, BAFF coated at 1 ug/mL, anti-human Fc-HRP, OD450
Procedure: as §1, with “The capabilities of B613301, B613302, and B613303, which are fusion proteins of anifrolumab and TACI-BCMA, to bind to BAFF and APRIL were assessed by ELISA as follows: [0548] BAFF (PeproTech,” for “BAFF (PeproTech,”, “Cat: 310-13) or ARPIL (Acro Biosystems, Cat: APL-H52D1) was diluted” for “Cat: 310-13) was diluted”, “96-well plate (Costar, Cat: 3590) was coated” for “96-well plate was coated”

B1: Telitacicept (RCT-18) (Fc fusion)
chain: SRVDQEERFPQGLWTGVAMRSCPEEQYWDPLLGTCMSCKTICNHQSQRTCAAFCRSLSCRKEQGKFYDHLLRDCISCASICGQHPKQCAYFCENKLRSPVNLPPELDKTHTCPPCPAPEAEGAPSVFLFPPKPKDTLMISRTPEVTCVVVDVSHEDPEVKFNWYVDGVEVHNAKTKPREEQYNSTYRVVSVLTVLHQDWLNGKEYKCKVSNKALPSSIEKTISKAKGQPREPQVYTLPPSRDELTKNQVSLTCLVKGFYPSDIAVEWESNGQPENNYKTTPPVLDSDGSFFLYSKLTVDKSRWQQGNVFSCSVMHEALHNHYTQKSLSLSPGK
notes: Positive control TACI-Fc; also called RC18
[1]
  EC50 (read off the curve): ~0.2 nM
[2]
  IC50: 27.5 nM
[3]
  EC50 (read off the curve): ~0.4 nM
[4]
  Flow cytometry proliferating B cell proportion (%), mean value, APRIL-induced, drug at 4.12 nM (IgG1: 55.30): 48.1%
  Flow cytometry proliferating B cell proportion (%), mean value, APRIL-induced, drug at 12.35 nM (IgG1: 54.80): 49.2%
  Flow cytometry proliferating B cell proportion (%), mean value, APRIL-induced, drug at 37.04 nM (IgG1: 56.63): 50.1%
  Flow cytometry proliferating B cell proportion (%), mean value, APRIL-induced, drug at 111.11 nM (IgG1: 55.83): 50.3%
  Flow cytometry proliferating B cell proportion (%), mean value, APRIL-induced, drug at 333.33 nM (IgG1: 56.27): 49.1%
  Flow cytometry proliferating B cell proportion (%), mean value, APRIL-induced, drug at 1000.00 nM (IgG1: 53.27): 46.3%
[5]
  EC50: 0.801 nM
